This assay deals with SkSGL from Sanguibacter keddieii fused with a His6-tag at the C-terminus (Group 2 / GH193 β-1,2-glucanase) (Sanguibacter keddieii). The experiment in a line: SEC; Superdex 200 (HiLoad 16/60), 20 mM Tris-HCl (pH 7.5) in place of 50 mM Tris-HCl (pH 8.0); size by protein markers. A general note: In gel filtration, larger molecules generally elute earlier.

“SkSGL from Sanguibacter keddieii fused with a His6-tag at the C-terminus (Group 2 / GH193 β-1,2-glucanase) (enzyme)”: the stoichiometry N was 2.

A word on the stoichiometry N: it is the number of molecules, sites or subunits per partner or assembly.

Values taken from publication PMC12102758.
